Reference: patent US20080160015A1

How the values were obtained:
[1] = molecular target: human monoclonal anti-C1 domain of Factor VIII inhibitory antibody RHD5; experiment: competition ELISA: 18B6 at 0.098 µg/ml with RHD5 2 µg/ml, RHD5 binding to coated recFVIII detected
[2] = molecular target: human monoclonal anti-C1 domain of Factor VIII inhibitory antibody RHD5; experiment: competition ELISA: 18B6 with RHD5 2 µg/ml, RHD5 binding to coated recFVIII detected
[3] = molecular target: human monoclonal anti-C1 domain of Factor VIII inhibitory antibody RHD5; experiment: competition ELISA: 18B6 at 6.25 µg/ml with RHD5 2 µg/ml, RHD5 binding to coated recFVIII detected
[4] = molecular target: human monoclonal anti-C1 domain of Factor VIII inhibitory antibody RHD5; experiment: competition ELISA: 18B6 at 0.78 µg/ml with RHD5 2 µg/ml, RHD5 binding to coated recFVIII detected
[5] = molecular target: human monoclonal anti-C1 domain of Factor VIII inhibitory antibody RHD5; experiment: cell-based or functional assay
[6] = molecular target: human monoclonal anti-C1 domain of Factor VIII inhibitory antibody RHD5; experiment: competition ELISA: 18B6 at 1.56 µg/ml with RHD5 2 µg/ml, RHD5 binding to coated recFVIII detected
[7] = molecular target: human monoclonal anti-C1 domain of Factor VIII inhibitory antibody RHD5; experiment: competition ELISA: 18B6 at 12.5 µg/ml with RHD5 2 µg/ml, RHD5 binding to coated recFVIII detected
[8] = molecular target: human monoclonal anti-C1 domain of Factor VIII inhibitory antibody RHD5; experiment: competition ELISA: 18B6 at 3.12 µg/ml with RHD5 2 µg/ml, RHD5 binding to coated recFVIII detected
[9] = molecular target: human monoclonal anti-C1 domain of Factor VIII inhibitory antibody RHD5; experiment: competition ELISA: 18B6 at 0.195 µg/ml with RHD5 2 µg/ml, RHD5 binding to coated recFVIII detected
[10] = molecular target: human monoclonal anti-C1 domain of Factor VIII inhibitory antibody RHD5; experiment: SPR (BIAcore), RHD5 immobilized on CM5, 18B6 infused
[11] = molecular target: human monoclonal anti-C1 domain of Factor VIII inhibitory antibody RHD5; experiment: competition ELISA: 18B6 at 0.39 µg/ml with RHD5 2 µg/ml, RHD5 binding to coated recFVIII detected
[12] = molecular target: human monoclonal anti-C1 domain of Factor VIII inhibitory antibody RHD5; experiment: competition ELISA: 18B6 at 25 µg/ml with RHD5 2 µg/ml, RHD5 binding to coated recFVIII detected
[13] = molecular target: human monoclonal anti-C1 domain of Factor VIII inhibitory antibody RHD5; experiment: competition ELISA: 18B6 at 50 µg/ml with RHD5 2 µg/ml, RHD5 binding to coated recFVIII detected
[14] = molecular target: human monoclonal anti-C1 domain of Factor VIII inhibitory antibody RHD5; experiment: competition ELISA: supernatant preincubated with RHD5 (0.6 µg/ml), RHD5 binding to coated recFVIII detected

B1: monoclonal anti-idiotypic antibody 18B6 (antibody, V domains shown)
VH: QVQLQQSGAELAKPGASVKMSCKASGYTFTTYWMHWIKQRPGQDLEWIGYINPTSGYTEYNQNFKDKATLTADKSSSTAYMQLNSLTSEDSAVYFCARSGAYYRYDDAMDSWGQGTSVTVSS
VL: QIVLSQSPAILSASPGEKVTMTCRASSSVSYMNWYQQKPGSSPKPWIYATSNLASGVPARFSGSGSGTSYSLTISRVEAEDAATYYCQQWSSNPPMLTFGAGTKLELK
modifications: mouse IgG1 kappa constant regions
[1]
  Inhibition of binding (%): 0%
[2]
  inhibition of binding at an equimolar ratio (%): 92%
  molar ratio RHD5/18B6 at 50% inhibition (molar ratio RHD5/18B6): 2.5
[3]
  Inhibition of binding (%): 96.7%
[4]
  Inhibition of binding (%): 50.3%
[5]
  Neutralisation (%) of RHD5 (0.4 µg/ml) inhibitory activity, chromogenic FVIII assay, anti-Id at 0.0002 µg/ml: 0%
  Neutralisation (%) of RHD5 (0.4 µg/ml) inhibitory activity, chromogenic FVIII assay, anti-Id at 0.0006 µg/ml: 6.7%
  Neutralisation (%) of RHD5 (0.4 µg/ml) inhibitory activity, chromogenic FVIII assay, anti-Id at 0.00183 µg/ml: 8.9%
  Neutralisation (%) of RHD5 (0.4 µg/ml) inhibitory activity, chromogenic FVIII assay, anti-Id at 0.0055 µg/ml: 6.7%
  Neutralisation (%) of RHD5 (0.4 µg/ml) inhibitory activity, chromogenic FVIII assay, anti-Id at 0.0165 µg/ml: 8.8%
  Neutralisation (%) of RHD5 (0.4 µg/ml) inhibitory activity, chromogenic FVIII assay, anti-Id at 0.049 µg/ml: 11%
  Neutralisation (%) of RHD5 (0.4 µg/ml) inhibitory activity, chromogenic FVIII assay, anti-Id at 0.148 µg/ml: 27.4%
  Neutralisation (%) of RHD5 (0.4 µg/ml) inhibitory activity, chromogenic FVIII assay, anti-Id at 0.44 µg/ml: 54.3%
  Neutralisation (%) of RHD5 (0.4 µg/ml) inhibitory activity, chromogenic FVIII assay, anti-Id at 1.33 µg/ml: 81.2%
  Neutralisation (%) of RHD5 (0.4 µg/ml) inhibitory activity, chromogenic FVIII assay, anti-Id at 4 µg/ml: 89.5%
  Neutralization: functional test (chromogenic FVIII assay, RHD5 1 µg/ml with supernatant, FVIII Kogenate 0.5 U/ml): 100%
  neutralisation of RHD5 inhibitory activity at an equimolar RHD5/18B6 ratio: 50%
[6]
  Inhibition of binding (%): 90.3%
[7]
  Inhibition of binding (%): 96.9%
[8]
  Inhibition of binding (%): 94.1%
[9]
  Inhibition of binding (%): 0%
[10]
  Kd: 3.4 nM
  koff: 1.45e-05 s⁻¹
  kon: 4260 M⁻¹ s⁻¹
[11]
  Inhibition of binding (%): 9.2%
[12]
  Inhibition of binding (%): 97.2%
[13]
  Inhibition of binding (%): 96.1%
[14]
  Inhibition: Elisa (%): 93.1%
